Measured values published in patent US20220306728A1 (VIR BIOTECHNOLOGY, published 2022).

How the values were obtained:
[1] = molecular target: H1N1 representative viral strain (hemagglutinin), Example 6; test: cell-based or functional assay
[2] = molecular target: H3N2 representative viral strain (hemagglutinin), Example 6; test: cell-based or functional assay

B1: FluAB_MLNS (antibody)
heavy: not shown
light: DIQMTQSPSSLSASVGDRVTITCRTSQSLSSYTHWYQQKPGKAPKLLIYAASSRGSGVPSRFSGSGSGTDFTLTISSLQPEDFATYYCQQSRTFGQGTKVEIKRTVAAPSVFIFPPSDEQLKSGTASVVCLLNNFYPREAKVQWKVDNALQSGNSQESVTEQDSKDSTYSLSSTLTLSKADYEKHKVYACEVTHQGLSSPVTKSFNRGEC
IC50 of in vitro neutralization (MDCK cells, neuraminidase activity read-out) [1]: 15.6 nM | IC50 of in vitro neutralization (MDCK cells, neuraminidase activity read-out) [2]: 17.9 nM
